Assay results published in US7659081B2, “Determination of AM-binding proteins and the association of adrenomedullin (AM) therewith” (The United States of America as represented by the …, priority 1999, dated 2010).
Where no end group is shown, it is not given here.

Columns and labels:
[1] = molecular target: T1, AMBP-1 (factor H) (Homo sapiens, UniProt P08603); test: Ligand blot competition of labeled AM binding to plasma AMBP-1; settings: 7 μM unlabeled peptide, preincubation 6 hr at 4° C.
T1 construct: Total proteins derived from human plasma (2 μl) were electrophoretically fractionated; from tissue; host or cells: human plasma
T1 sequence (P08603 19-1231): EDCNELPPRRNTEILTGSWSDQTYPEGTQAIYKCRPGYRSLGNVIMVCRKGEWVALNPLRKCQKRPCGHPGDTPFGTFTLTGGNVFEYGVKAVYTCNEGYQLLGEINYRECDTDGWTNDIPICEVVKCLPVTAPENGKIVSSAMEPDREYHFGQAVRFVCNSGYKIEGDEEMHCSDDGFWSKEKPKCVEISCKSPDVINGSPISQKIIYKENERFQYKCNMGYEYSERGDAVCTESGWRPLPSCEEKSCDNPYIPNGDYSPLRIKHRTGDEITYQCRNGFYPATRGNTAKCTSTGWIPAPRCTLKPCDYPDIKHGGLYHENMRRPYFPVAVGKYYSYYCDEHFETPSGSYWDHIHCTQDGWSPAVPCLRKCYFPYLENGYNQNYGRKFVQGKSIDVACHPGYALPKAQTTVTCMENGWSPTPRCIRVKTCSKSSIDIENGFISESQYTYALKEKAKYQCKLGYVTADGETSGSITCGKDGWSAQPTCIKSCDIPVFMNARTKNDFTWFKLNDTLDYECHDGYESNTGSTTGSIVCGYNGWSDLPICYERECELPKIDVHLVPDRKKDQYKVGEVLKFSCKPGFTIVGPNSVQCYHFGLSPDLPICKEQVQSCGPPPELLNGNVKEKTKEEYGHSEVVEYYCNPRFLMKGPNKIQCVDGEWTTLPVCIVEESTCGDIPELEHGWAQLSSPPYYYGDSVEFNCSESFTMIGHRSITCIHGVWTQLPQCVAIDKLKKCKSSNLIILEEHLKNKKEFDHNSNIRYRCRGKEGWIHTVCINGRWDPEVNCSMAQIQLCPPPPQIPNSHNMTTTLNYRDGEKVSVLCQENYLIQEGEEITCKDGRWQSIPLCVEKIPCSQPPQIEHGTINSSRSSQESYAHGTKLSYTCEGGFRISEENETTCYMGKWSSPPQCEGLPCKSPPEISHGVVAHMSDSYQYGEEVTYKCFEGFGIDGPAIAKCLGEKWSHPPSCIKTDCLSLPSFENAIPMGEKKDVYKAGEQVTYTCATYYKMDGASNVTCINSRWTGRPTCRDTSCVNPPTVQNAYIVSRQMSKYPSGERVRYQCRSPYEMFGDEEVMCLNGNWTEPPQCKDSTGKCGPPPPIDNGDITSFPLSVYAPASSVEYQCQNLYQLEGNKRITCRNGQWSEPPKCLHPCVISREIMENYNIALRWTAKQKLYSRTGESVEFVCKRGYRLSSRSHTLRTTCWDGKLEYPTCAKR
Method: Total proteins derived from human plasma (2 μl) were electrophoretically fractionated on 3-8% Tris-acetate gel (Novex, San Diego, Calif.) under non-reducing conditions. For the ligand blotting experiment, the proteins were transferred to a […] nitrocellulose membrane that was incubated for […] with 1% Nonidet P-40 (NP-40). Non-specific binding was further blocked with a 2 hr incubation in TBS containing 0.1% ATC. Incubations with 70 nM AM labeled with biotin, fluorescein, or DNP were carried out overnight at 4° C. in blocking buffer containing 0.1% TWEEN® 20 nonionic detergent. For biotin detection, the ligand blot was incubated with an avidin-biotin-peroxidase complex and the AEC reagent (Vector Laboratories, Inc., Burlingame, Calif.). For fluorescein and DNP, the ligand blots were incubated 1 hr at room temperature with rabbit anti-fluorescein or anti-DNP IgG, respectively, (1:1000 in incubation buffer; Molecular Probes, Inc.). Anti-rabbit antibody labeled with alkaline phosphatase (1:2000; Dako Corporation, Carpenteira, Calif.) was added for 0.5 hr, and the blot was developed using 4-nitro blue tetrazolium chloride/5-bromo-4-chloro-3-indolyl phosphate (NBT/BCIP) as the color-substrate solution (Roche Molecular Biochemicals, Indianapolis, Ind.).
Following this preincubation, labeled full-length AM was introduced and incubated overnight at 4° C.

[2] = molecular target: factor H (Homo sapiens, UniProt P08603); test: Multi-well plate competition of fluorescein-labeled AM binding to factor H; parameters: purchased Sigma; settings: 50 nM fluorescein-labeled AM; factor H 5 ng/well; increasing concentrations of unlabeled competitor
Sequence of factor H (P08603 19-1231): as above
Method: Lane 1: horseradish peroxidase (5 μg), a glycosylated protein used as positive control; Lane 2: soybean trypsin inhibitor (5 μg), a non-glycosylated protein used as negative control; Lane 3: AMBP-1 (2 μg). […] Lane 1: isoelectric focusing markers; Lane 2: AMBP-1 (4 μg). […] Lane 1: AMBP-1 (100 ng); Lane 2: AMBP-1 (200 ng); Lane 3: commercially available human factor H (50 ng); Lane 4: human plasma (0.2 μl). […] Results represent one of two independent experiments. Values represent mean and standard deviation of three determinations. “B/B0” indicates the ratio of signals generated in the presence/absence of unlabeled competitor.
(§1) Alternatively, the AM/fH interaction was analyzed using a multi-well assay. In accordance with this assay, a 96-well polyvinylchloride (PVC) plate was coated with factor H (5 ng/well, Sigma, St. Louis, Mo.). The plate was blocked with a solution containing TBS, 0.1% ATC, and 0.1% TWEEN® 20 nonionic detergent, and then incubated with fluorescein-labeled AM (50 nM) for 2 hr. Prior to the development of the assay, the wells were incubated for various time periods with PBS or 3M NaSCN pH 7.4. Following this, the plate was washed and incubated with anti-fluorescein polyclonal antibody (1:1000, Molecular Probes) and ^125I-Protein A (Amersham Pharmacia Biotech). Radioactivity was determined using a gamma counter. FIG. 6B.

[3] = Storage of non-radioactively labeled AM; format: physicochemical; settings: stored at 4° C. for as long as 3 months
Method: Non-radioactive labeling of AM was accomplished by conjugating synthetic AM comprising amino acids 1-52 (Phoenix Pharmaceuticals, Inc., Mountainview, Calif.) with succinimidyl esters linked to biotin (Pierce Chemical Co., Rockford, Ill.), fluorescein (Molecular Probes, Inc., Eugene, Oreg.), or dinitrophenol (DNP; Molecular Probes, Inc.). Briefly, 100 μg of AM (16 μM) was dissolved in 1 ml of 50 mM sodium bicarbonate, pH 8.5, and the succinimidyl ester was added to yield a final molar concentration of 10:1 (linker:AM). The mixture was incubated with slow agitation for 1 hr at room temperature and the reaction was terminated by the addition of 0.1 M ethanolamine followed by another incubation for 1 hr. Unincorporated ligand was removed by extracting the AM using reverse phase SEP-PAK® C-18 solid-phase extraction cartridges (Waters, Milford, Mass.) and eluting the sample with acidic-isopropanol. The extract was lyophilized and reconstituted in 1 ml of TBS (0.05 M Tris-HCl, 0.15 M NaCl), 0.1% alkali-treated casein (ATC), 0.1% TWEEN® 20 nonionic detergent, and 0.05% TRITON® X-100 nonionic detergent, pH 7.4.

[4] = molecular target: AM/fH complex (Homo sapiens, UniProt P08603); settings: 3M NaSCN
Sequence of AM/fH complex (P08603 19-1231, one chain of several): as the sequence (P08603 19-1231) above
Method: as §1

Row | Compound | Competition for labeled AM/AMBP-1 complex on ligand blot [1] | further results
1 | AM22-52: AM truncated polypeptide | only full-length AM was able to dissociate | –
2 | AM1-12: AM truncated polypeptide (YRQSMNNFQGLR) | only full-length AM was able to dissociate | –
3 | proadrenomedullin N-terminal 20 peptide (ARLDVASEFRKKWNKWALSR) [PAMP] | only full-length AM was able to dissociate | Effect on binding of fluorescein-labeled AM to factor H-coated plate [2]: not affected
4 | Labeled AM: synthetic AM 1-52 conjugated via succinimidyl esters to biotin, fluorescein or dinitrophenol | – | Storage stability (activity) [3]: without significant loss of activity
5 | N#C[S-].[Na+] [NaSCN, sodium thiocyanate] | – | Dissociation of AM/fH complex [4]: dissociated
6 | AM34-52: AM truncated polypeptide (TDKDKDNVAPRSKISPQGY) | only full-length AM was able to dissociate | –
7 | calcitonin gene-related peptides [CGRP] | only full-length AM was able to dissociate | Effect on binding of fluorescein-labeled AM to factor H-coated plate [2]: not affected
8 | insulin-like growth factor [IGF-1] | only full-length AM was able to dissociate | –
9 | AM13-52: AM truncated polypeptide | only full-length AM was able to dissociate | –
10 | AM16-21: AM truncated polypeptide (CRFGTC) | only full-length AM was able to dissociate | –
11 | amylin (KCNTATCATQRLANFLVHSSNNFGAILSSTNVGSNTY; not fully specified (C-terminus, bridges); cysteine pairing not given here; UniProt P10997 34-70, looked up) | only full-length AM was able to dissociate | –
